In the experiment the target is His6-Gp54^Bas11 (phage Bas11). Description: ITC. On the technique in general: ITC needs no label: the signal is the heat of the interaction.

His6-MBP-CapRel^SJ46 (natural protein) gave a Kd of 800 nM and a stoichiometry N of 1.

A word on the Kd: it is the constant that tells how readily two partners part at equilibrium. A higher Kd goes with weaker binding. For orientation: stoichiometry N means a count of units in the complex or per binding partner.
